From PMC6863750

What was measured:
[1] = target: GFP-CYRI-mito, WT (Dictyostelium CYRI targeted to mitochondria) (D. discoideum); assay: mitochondrial co-recruitment
[2] = target: Rac1A P29S/Q61L-mCherry-mito (targeted to mitochondria) (D. discoideum) (UniProt P34144); assay: mitochondrial co-recruitment

Row | Substance | Pearson's coefficient of correlation for co-localisation at the mitochondria [1] | Pearson's coefficient of correlation for co-localisation at the mitochondria [2]
1 | Rac1A P29S/Q61L-mCherry (from UniProt P34144 1-194) (natural protein) | 0.44 | –
2 | Dictyostelium CYRI WT, GFP fusion (natural protein) | – | 0.77
